# T1: GatB, subunit B of the aminoacyl-tRNA amidotransferase complex GatCAB (Arabidopsis, UniProt Q9FV81 60-550)
# T1 sequence: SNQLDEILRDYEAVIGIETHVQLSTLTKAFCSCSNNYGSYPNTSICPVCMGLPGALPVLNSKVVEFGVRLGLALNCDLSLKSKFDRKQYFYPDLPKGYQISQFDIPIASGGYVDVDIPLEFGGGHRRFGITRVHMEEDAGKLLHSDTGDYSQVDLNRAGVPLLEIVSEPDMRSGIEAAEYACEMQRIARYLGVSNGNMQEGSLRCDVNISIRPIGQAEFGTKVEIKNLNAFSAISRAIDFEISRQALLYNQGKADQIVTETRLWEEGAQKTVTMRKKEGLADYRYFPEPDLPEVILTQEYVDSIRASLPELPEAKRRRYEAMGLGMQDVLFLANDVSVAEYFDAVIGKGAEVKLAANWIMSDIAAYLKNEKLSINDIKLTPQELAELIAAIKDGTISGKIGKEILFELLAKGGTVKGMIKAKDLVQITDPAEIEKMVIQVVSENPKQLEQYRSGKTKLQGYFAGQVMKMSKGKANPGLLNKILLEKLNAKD
# T2: GatA, subunit A of the aminoacyl-tRNA amidotransferase complex GatCAB (Arabidopsis, UniProt Q9LI77 45-537)
# T2 sequence: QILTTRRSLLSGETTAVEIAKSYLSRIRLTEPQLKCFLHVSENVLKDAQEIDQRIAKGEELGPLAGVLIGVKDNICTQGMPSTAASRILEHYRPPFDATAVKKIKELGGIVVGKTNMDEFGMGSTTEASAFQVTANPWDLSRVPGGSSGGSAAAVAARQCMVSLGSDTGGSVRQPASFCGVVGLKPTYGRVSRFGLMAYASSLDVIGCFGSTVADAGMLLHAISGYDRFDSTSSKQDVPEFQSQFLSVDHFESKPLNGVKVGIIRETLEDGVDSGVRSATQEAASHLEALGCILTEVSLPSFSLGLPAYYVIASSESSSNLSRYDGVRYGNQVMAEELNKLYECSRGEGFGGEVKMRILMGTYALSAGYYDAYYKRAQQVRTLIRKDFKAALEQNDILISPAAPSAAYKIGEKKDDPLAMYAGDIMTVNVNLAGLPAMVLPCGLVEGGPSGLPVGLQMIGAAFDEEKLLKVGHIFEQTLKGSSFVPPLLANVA
# B1: GatC, subunit C of the aminoacyl-tRNA amidotransferase complex GatCAB (natural protein)
# chain: RSYSSDSDSSVLQPPDVARLAQTARISLTPAEIEECETKIRRVIDWFGQLQQVDVNSVEPAIRAEMDGGNLREDAPETFDNRDSIRASIPSFEDAYLKVPKILNKE
# Experiments:
# [1] = molecular target: T1, GatB, subunit B of the aminoacyl-tRNA …; test: SEC
# [2] = molecular target: T2, GatA, subunit A of the aminoacyl-tRNA …; test: SEC
binder,measurement,setting,value
B1,binding result,[1],binds
same,binding result,[2],binds
